Source: patent US20170029507A1 (IMAGINAB, published 2017)

Assays:
[1] = target: T1, purified recombinant human CD8 protein (human, UniProt P01732 22-182, limits assumed); test: ELISA, plate coated with rhCD8, transfection supernatant at 0.5 µg/ml and serially diluted, HRP goat anti-human IgG (Fc-specific), TMB, 405 nm
T1 construct: also called rhCD8; hCD8
Procedure: (§1) The concentration of the variants UAb_Mb1b_CD8, and IAb_Mb1a_CD8 were normalized to […] the concentration of IAb_MB2a_CD8 (0.5 μg/ml) based on the quantitative ELISA.
(§2) 96 well plates were coated with rhCD8 antigen and incubated with supernatants obtained from the transient transfection. Binding was detected with HRP-conjugated goat anti-human (Fc-specific) IgG and TMB substrate. The absorbance measured at 405 nm. Dilutions were done in triplicate. Data is shown as mean of relative absorbance.

[2] = target: T1, purified recombinant human CD8 protein; test: ELISA, plate coated with rhCD8, transfection supernatant serially diluted from 0.5 µg/ml, HRP goat anti-human IgG (Fc-specific), TMB, 405 nm
Procedure: as §1, §2

T1 sequence (P01732 22-182 limits assumed): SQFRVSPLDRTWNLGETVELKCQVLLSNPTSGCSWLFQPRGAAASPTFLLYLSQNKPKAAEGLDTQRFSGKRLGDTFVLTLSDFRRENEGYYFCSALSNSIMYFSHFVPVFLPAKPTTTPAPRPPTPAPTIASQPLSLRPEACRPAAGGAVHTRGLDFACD

B1: IAb_Mb2a_CD8 (other)
chain: EVQLVESGGGLVQPGGSLRLSCAASGFNIKDTYIHFVRQAPGKGLEWIGRIDPANDNTLYASKFQGKATISADTSKNTAYLQMNSLRAGDTAVYYCGRGYGYYVFDHWGQGTLVTVSSGSTSGGGSGGGSGGGGSSDVQITQSPSSLSASVGDRVTITCRTSRSISQYLAWYQQKPGKVPKLLIYSGSTLQSGVPSRFSGSGSGTDFTLTISSLQPEDVATYYCQQHNENPLTFGGGTKVEIKEPKSCDKTHTCPPCGGGSSGGGSGGQPREPQVYTLPPSRDELTKNQVSLTCLVKGFYPSDIAVEWESNGQPENNYKTTPPVLDSDGSFFLYSKLTVDKSRWQQGNVFSCSVMHEALHNHYTQKSLSLSPGK
notes: Tested as CHO-K1 transfection supernatant; also called variant 2a
EC50 (read off the curve) [1]: ~0.02 µg/mL

B2: IAb_Mb2c_CD8 (other)
chain: QVQLVQSGAEVKKPGATVKISCKVSGFNIKDTYIHFVQQAPGKGLEWIGRIDPANDNTLYASKFQGKATITADTSTDTAYMELSSLRSGDTAVYYCGRGYGYYVFDHWGQGTLVTVSSGSTSGGGSGGGSGGGGSSDVQITQSPSSLSASVGDRVTITCRTSRSISQYLAWYQQKPGKVPKLLIYSGSTLQSGVPSRFSGSGSGTDFTLTISSLQPEDVATYYCQQHNENPLTFGGGTKVEIKEPKSCDKTHTCPPCGGGSSGGGSGGQPREPQVYTLPPSRDELTKNQVSLTCLVKGFYPSDIAVEWESNGQPENNYKTTPPVLDSDGSFFLYSKLTVDKSRWQQGNVFSCSVMHEALHNHYTQKSLSLSPGK
notes: Tested as CHO-K1 transfection supernatant; also called variant 2c
EC50 (read off the curve) [2]: ~0.04 µg/mL
